Assay results from publication PMC10859935, “Surface Charge Can Modulate Phase Separation of Multidomain Proteins” (Journal of the American Chemical Society, 2024).

Experiments:
[1] = molecular target: polySIM (protein consisting of 10 SIMs derived from the PIASx protein)
[2] = molecular target: small ubiquitin-like modifier protein 1 (SUMO1) domain, wild type (UniProt P63165); assay: static light scattering (second virial coefficient A2); pH 6.5; 25 °C; A2 from the slope of scattering intensity versus mass concentration; weak self-association of a single domain
[3] = molecular target: small ubiquitin-like modifier protein 1 (SUMO1) domain, wild type (UniProt P63165); assay: static light scattering (second virial coefficient A2); pH 8.0; 25 °C; 20 mM HEPES, 150 mM KCl, 1 mM MgCl2, 1 mM DTT, 1 mM EGTA; A2 from the slope of scattering intensity versus concentration
[4] = molecular target: T1, small ubiquitin-like modifier protein 1 (SUMO1) domain, wild type (UniProt P63165 1-97); assay: ITC; 50–100 μM SIM peptide in the cell, SUMO in the syringe; 25 °C; 20 mM HEPES (pH 7.0 or 8.0) or 20 mM MES (pH 6.5), 150 mM KCl, 1 mM MgCl2, 1 mM DTT, 1 mM EGTA; 1:1 binding model; details: both partners purified
T1 construct: SUMO1, single domain; also called WT SUMO; WT SUMO1; source: BL21(DE3) T1R cells, purified (Ni-NTA, TEV cleavage, Source15Q, Superdex200); not shown: His8, N-terminal, cleaved
T1 sequence (P63165 1-97): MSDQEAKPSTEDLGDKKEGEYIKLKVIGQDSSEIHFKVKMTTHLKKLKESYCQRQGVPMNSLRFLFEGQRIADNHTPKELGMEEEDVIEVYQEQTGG

Question: For “polySUMO (synthetic protein consisting of five SUMO domains)”, which phase-separation threshold (module concentration, equimolar modules) by turbidity at 340 nm, pH 6 [1] is on record?
Answer: 75 μM

Question: And the phase-separation threshold (module concentration, equimolar modules) by turbidity at 340 nm, pH 6.5 [1]?
Answer: 100 μM

Question: What about the phase-separation threshold (module concentration, equimolar modules) by turbidity at 340 nm, pH 7 [1] of the same molecule?
Answer: 150 μM

Question: What about the phase-separation threshold (module concentration, equimolar modules) by turbidity at 340 nm, pH 8 [1] of the same molecule?
Answer: 300 μM

Question: For “small ubiquitin-like modifier protein 1 (SUMO1) domain, wild type (from UniProt P63165 1-97) (natural protein)”, which A2 (second virial coefficient) [2] is on record?
Answer: -0.00012 mol mL g^–2

Question: And the A2 (second virial coefficient) [3]?
Answer: 0.00012 mol mL g^–2

Question: With KVDVIDLTIESSSDEEEDPPAKR [SUMO interaction motif (SIM) peptide derived from the PIASx protein] as the molecule, how does the Kd [4] read?
Answer: 15 to 20 µM
